According to article PMC12827327:
pKd: −log10 of the molar value.

What was measured:
[1] = target: actin filament (F-actin) of chicken skeletal α-actin, pointed end (chicken) (UniProt P68139); experiment: pyrene-actin dilution-induced pointed end depolymerization assay; apparent KD from inhibition of pointed end depolymerization; 10 µM CP-capped pyrene F-actin (20% labeled) incubated with the protein 15 min on ice, diluted to 0.5 µM; hyperbolic fit of normalized rate constants
[2] = target: actin filament (F-actin) of chicken skeletal α-actin, pointed end (chicken) (UniProt P68139); experiment: pyrene-actin pointed end elongation assay; apparent KD from inhibition of pointed end elongation; 0.8 µM F-actin seeds with 8 nM capping protein incubated with the titrated protein, 2 µM G-actin (8% pyrene-labeled) added; 10 mM HEPES pH 7.4, 50 mM KCl, 1 mM MgCl2, 1 mM EGTA; hyperbolic fit of normalized rates
[3] = target: actin filament (F-actin) of chicken skeletal α-actin, pointed end (chicken) (UniProt P68139)
[4] = target: actin filament (F-actin) of chicken skeletal α-actin, pointed end (chicken) (UniProt P68139); remark: listed apart in the source
[5] = target: actin filament (F-actin) of chicken skeletal α-actin, pointed end (chicken) (UniProt P68139); remark: listed apart in the source

Sequence of human SH3BGRL (O75368 whole entry): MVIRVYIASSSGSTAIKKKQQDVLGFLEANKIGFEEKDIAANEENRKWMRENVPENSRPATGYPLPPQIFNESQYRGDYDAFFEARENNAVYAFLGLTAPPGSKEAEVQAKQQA
Sequence of human SH3BGRL-3 (Q9H299 whole entry): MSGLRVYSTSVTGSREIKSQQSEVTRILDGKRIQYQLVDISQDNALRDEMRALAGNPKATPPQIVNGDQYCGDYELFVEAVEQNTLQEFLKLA
Sequence of human tropomodulin-3 (Q9NYL9 whole entry): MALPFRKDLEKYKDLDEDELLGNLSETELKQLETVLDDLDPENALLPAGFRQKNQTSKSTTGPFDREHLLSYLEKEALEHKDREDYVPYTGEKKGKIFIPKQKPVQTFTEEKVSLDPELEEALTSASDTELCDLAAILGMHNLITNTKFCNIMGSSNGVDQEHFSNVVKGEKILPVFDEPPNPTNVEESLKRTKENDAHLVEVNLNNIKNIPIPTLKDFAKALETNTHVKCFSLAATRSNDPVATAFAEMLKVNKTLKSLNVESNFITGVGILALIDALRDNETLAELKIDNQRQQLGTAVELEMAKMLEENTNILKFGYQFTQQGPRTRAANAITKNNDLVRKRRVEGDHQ

Row | pKd [1] | pKd [2] | apparent rate of filament nucleation knuc, TIRFM, 1 µM ATTO-488 α-actin, 1-5 µM SH3BGRL (actin only: 5.1 × 10^-6) [3] | pyrene-actin bulk polymerization from 2 µM α-actin (5% pyrene-labeled), increasing SH3BGRL: increase of the net polymerization rate [4] | concentration required for half-maximal inhibition of pointed end depolymerization (K50%), CP-capped pyrene F-actin [5] | apparent rate of filament nucleation knuc, TIRFM, 1 µM ATTO-488 α-actin, 0.5-5 µM SH3BGRL-3 (actin only: 5.1 × 10^-6) [3] | pyrene-actin bulk polymerization from 2 µM α-actin (5% pyrene-labeled), increasing SH3BGRL-3: increase of the net polymerization rate [4] | Substance
1 | 6.89 | 6.74 | – | – | – | – | – | human tropomodulin-3 (from UniProt Q9NYL9 1-352) (natural protein)
2 | – | 7.07 | 2.22e-05 µm^-2 s^-1 | < 3 fold | 7.6 µM | – | – | human SH3BGRL (from UniProt O75368 1-114) (natural protein)
3 | – | 7.51 | – | – | 7.7 µM | 3.42e-05 µm^-2 s^-1 | < 3 fold | human SH3BGRL-3 (from UniProt Q9H299 1-93) (natural protein)
